Measurements as given in PMC6476560 (PLoS ONE, 2019).

T1: fluorescently labelled Dop (deamidase of Pup; depupylase) (UniProt P9WNU9 1-505)
T1 sequence: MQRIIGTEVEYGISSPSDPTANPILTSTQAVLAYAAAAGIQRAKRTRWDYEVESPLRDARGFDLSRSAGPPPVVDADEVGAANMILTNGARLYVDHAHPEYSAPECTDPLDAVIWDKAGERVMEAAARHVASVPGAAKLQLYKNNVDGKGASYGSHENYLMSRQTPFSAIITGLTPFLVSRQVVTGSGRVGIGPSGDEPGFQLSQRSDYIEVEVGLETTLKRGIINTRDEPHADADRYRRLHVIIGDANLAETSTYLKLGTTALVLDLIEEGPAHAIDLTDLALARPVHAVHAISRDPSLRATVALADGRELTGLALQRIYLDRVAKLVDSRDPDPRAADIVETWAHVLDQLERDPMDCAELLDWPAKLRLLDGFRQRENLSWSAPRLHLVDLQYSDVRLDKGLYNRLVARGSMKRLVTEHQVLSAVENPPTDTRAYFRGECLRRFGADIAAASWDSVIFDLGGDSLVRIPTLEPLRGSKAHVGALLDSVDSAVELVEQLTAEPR

B1: wild-type MtbMpa (mycobacterial proteasomal ATPase), hexamer (enzyme)
chain: MGESERSEAFGIPRDSPLSSGDAAELEQLRREAAVLREQLENAVGSHAPTRSARDIHQLEARIDSLAARNSKLMETLKEARQQLLALREEVDRLGQPPSGYGVLLATHDDDTVDVFTSGRKMRLTCSPNIDAASLKKGQTVRLNEALTVVEAGTFEAVGEISTLREILADGHRALVVGHADEERVVWLADPLIAEDLPDGLPEALNDDTRPRKLRPGDSLLVDTKAGYAFERIPKAEVEDLVLEEVPDVSYADIGGLSRQIEQIRDAVELPFLHKELYREYSLRPPKGVLLYGPPGCGKTLIAKAVANSLAKKMAEVRGDDAHEAKSYFLNIKGPELLNKFVGETERHIRLIFQRAREKASEGTPVIVFFDEMDSIFRTRGTGVSSDVETTVVPQLLSEIDGVEGLENVIVIGASNREDMIDPAILRPGRLDVKIKIERPDAEAAQDIYSKYLTEFLPVHADDLAEFDGDRSACIKAMIEKVVDRMYAEIDDNRFLEVTYANGDKEVMYFKDFNSGAMIQNVVDRAKKNAIKSVLETGQPGLRIQHLLDSIVDEFAENEDLPNTTNPDDWARISGKKGERIVYIRTLVTGKSSSASRAIDTESNLGQYL
B2: Pup-Icl1-Fl (fluorescein-labelled pupylated isocitrate lyase 1 Icl1) (complex)
chain 1: MSVVGTPKSAEQIQQEWDTNPRWKDVTRTYSAEDVVALQGSVVEEHTLARRGAEVLWEQLHDLEWVNALGALTGNMAVQQVRAGLKAIYLSGWQVAGDANLSGHTYPDQSLYPANSVPQVVRRINNALQRADQIAKIEGDTSVENWLAPIVADGEAGFGGALNVYELQKALIAAGVAGSHWEDQLASEKKCGHLGGKVLIPTQQHIRTLTSARLAADVADVPTVVIARTDAEAATLITSDVDERDQPFITGERTREGFYRTKNGIEPCIARAKAYAPFADLIWMETGTPDLEAARQFSEAVKAEYPDQMLAYNCSPSFNWKKHLDDATIAKFQKELAAMGFKFQFITLAGFHALNYSMFDLAYGYAQNQMSAYVELQEREFAAEERGYTATKHQREVGAGYFDRIATTVDPNSSTTALTGSTEEGQFH
chain 2: MAQEQTKRGGGGGDDDDIAGSTAAGQERREKLTEETDDLLDEIDDVLEENAEDFVRAYVQKGGE
notes: copies: 4 + 2
B3: Pup-Icl1 (pupylated isocitrate lyase 1 Icl1), unlabelled (complex)
chain 1: B2 chain 1
chain 2: B2 chain 2
notes: copies: 4 + 2

Tests used:
Assay in all cases: MST
Settings in all cases: both partners purified
[1] = target: Pup-PckA-Fl (fluorescein-labelled pupylated phosphoenolpyruvate carboxykinase PckA) (Mycobacterium tuberculosis, UniProt P9WIH3;P9WHN5, PupE (C-terminal glutamine as glutamate))
[2] = target: B1
[3] = target: T1, fluorescently labelled Dop (deamidase …)

**Q.** How did the Kd [1] turn out when B1 was run?
**A.** 210 ± 100 nM

**Q.** For B2, which Kd [2] is on record?
**A.** 160 ± 30 nM

**Q.** Which Kd [3] does the source give for B3 here?
**A.** 129 ± 41 nM
